Experimental data from US20210230266A1 (SINGAPORE HEALTH SERVICES PTE, published 2021).

T1: Human IL-11 (human, UniProt P20809 22-199)
T1 construct: Recombinant human IL-11 (GenScript Cat. No. Z03108-1) or IL-11 secreted by human cells; the mature form is said to have 178 residues; also called recombinant human IL-11; endogenously produced IL-11
T1 sequence: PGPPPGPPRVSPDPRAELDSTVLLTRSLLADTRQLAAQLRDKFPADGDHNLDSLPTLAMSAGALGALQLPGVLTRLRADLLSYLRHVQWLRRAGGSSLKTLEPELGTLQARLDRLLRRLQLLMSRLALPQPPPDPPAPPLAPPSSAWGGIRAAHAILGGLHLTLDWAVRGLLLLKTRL

T2: Mouse IL-11 (mouse, UniProt P47873 22-199, limits assumed)
T2 construct: also called murine IL-11; recombinant murine IL-11
T2 sequence (looked up): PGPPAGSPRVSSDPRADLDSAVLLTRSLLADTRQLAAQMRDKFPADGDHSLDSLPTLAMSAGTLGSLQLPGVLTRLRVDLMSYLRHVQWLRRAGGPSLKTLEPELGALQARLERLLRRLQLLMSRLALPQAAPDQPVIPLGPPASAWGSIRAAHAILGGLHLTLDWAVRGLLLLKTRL


Columns and labels:
Human IL-11 [1] = molecular target: T1, Human IL-11; test: ELISA on coated recombinant human IL-11 (100 ng/well), scFv-Fc
Procedure: The light chain shuffled anti-IL-11 antibodies were analysed to determine the EC50 for binding to human IL-11 by ELISA according to standard methods. Briefly, wells of microtiter plates were coated with recombinant human IL-11 (100 ng/well), scFv-Fc comprising the VH and VL domains of the clones were added in a dilution series and antibody binding was detected using a polyclonal antibody detection system.

Human IL-11 [2] = molecular target: T1, Human IL-11; test: cell-based or functional assay
Mouse IL-11 = molecular target: T2, Mouse IL-11; test: ELISA
Procedure: (§1) The soluble scFv were produced by recombinant expression in E. coli, and analysed for their ability to bind to human IL-11 and murine IL-11 by ELISA. Briefly, the respective antigen was coated to wells of an ELISA plate, the cell culture supernatant containing the respective scFv was added at a 1:2 dilution, and binding was detected.

Human IL-11 [3] = molecular target: T1, Human IL-11; test: ELISA
Procedure: as §1

Binder	EC50 (Human IL-11 [1]) [µg/mL]	MMP2 production, Experiment 1 (human atrial fibroblasts + TGFB1) (Human IL-11 [2]) [ng/mL]	MMP2 production, Experiment 2 (human atrial fibroblasts + TGFB1) (Human IL-11 [2]) [ng/mL]	mIL11 - average signal (Mouse IL-11)	hIL11 - average signal (Human IL-11 [3])
YU100-E01 (antibody) QVQLQQSGGGVVQPGRSLRLSCAASGFTFSSYGMHWVRQAPGKGLEWVAVISYDGSNKYYADSVKGRFTISRDNSKNTLYLQMNSLRAEDTAVYYCAKIGATDPLDYWGQGTLVTVSSGSASAPKLEEGEFSEARVQSALTQPASVSGSPGQSITISCTGTSNDIGAYNYVSWYQQHPGKAPKLLIYDVNNRPSGVSDRFSGSKSGNTASLTISGLQAEDEADYYCCSYAGSYSWVFGGGTKLTVLGQPKANPTVTLFPPSS	0.03	59.3	51.8	0.238	0.207
YU100-B01 (antibody) QVQLVQSGGGVVQPGRSLRLSCAASGFTFSSYGMHWVRQAPGKGLEWVAVISYDGSNKYYADSVKGRFTISRDNSKNTLYLQMNSLRAEDTAVYYCAKIGATDPLDYWGQGTLVTVSSGSASAPKLEEGEFSEARVQSALTQPRSVSGSPGQSVTISCTGTNTDVGAYNYVSWYQQYPGKAPKLIIYDVSKRPSGVPDRFSGSKSGNTASLTISGLQAEDEADYYCCSYAGSYSWVFGGGTKLTVL	0.023	52.5	40	0.175	0.187
YU100-B07 (antibody) QVQLVESGGGVVQPGRSLRLSCAASGFTFSSYGMHWVRQAPGKGLEWVAVISYDGSNKYYADSVKGRFTISRDNSKNTLYLQMNSLRAEDTAVYYCAKIGATDPLDYWGQGTLVTVSSGSASAPKLEEGEFSEARVQSALTQPRSVSGSPGQSVTMSCTGTSRDVGGYNYVSWYQHHPGKAPKLMIYDVSKRPSGVPDRFSGSKSGNTASLTISELQAEDEADYYCCSYAGSYTWVFGGGTKLTVL	0.023	55.9	47.4	0.354	0.167
YU100-D05 (antibody) QVQLQQSGGGVVQPGRSLRLSCAASGFTFSSYGMHWVRQAPGKGLEWVAVISYDGSNKYYADSVKGRFTISRDNSKNTLYLQMNSLRAEDTAVYYCAKIGATDPLDYWGQGTLVTVSSGSASAPKLEEGEFSEARVQSALTQPASVSGSPGQLITISCTGTNSDVGGYNYVSWYQQHPGKAPKLMIYDVSNRPSGVSNRFSGSKSGNTASLTISGLQAEDEADYYCCSYAGSYTWVFGGGTKLTVLGQPKAAPSVTLFPPSS	0.042	53.3	48.8	0.284	0.223
YU100-B06 (antibody) QVQLVESGGGVVQPGRSLRLSCAASGFTFSSYGMHWVRQAPGKGLEWVAVISYDGSNKYYADSVKSRFTISRDNSKNTLYLQMNSLRAEDTAVYYCAKIGATDPLDYWGQGTLVTVSSGSASAPKLEEGEFSEARVQSALTQPASVSGSPGQSITISCTGTSSDVGGYNYVSWYQQHPGKAPKLMIYDVSKRPSGVPDRFSGSKSGNTASLTISGLQAEDEADYYCNSYAGSYTWVFGGGTKLTVL	0.033	47.6	49.6	0.404	0.209
YU100-B08 (antibody) EVQLVQSGGGVVQPGRSLRLSCAASGFTFSSYGMHWVRQAPGKGLEWVAVISYDGSNKYYADSVKGRFTISRDNSKNTLYLQMNSLRAEDTAVYYCAKIGATDPLDYWGQGTLVTVSSGSASAPKLEEGEFSEARVQSALTQPASVSGSPGQSITISCTGTSSDVGGYNYVSWYQQHPGKVPRLLIYDVSNRPSGVSTRFSGSKSGNTASLTISGLQGEDEAEYYCSSFTSSTTWVFGGGTKLTVL	0.021	55.3	40.6	0.423	0.209
YU100-E04 (antibody) QVQLQQSGGGVVQPGRSLRLSCAASGFTFSSYGMHWVRQAPGKGLEWVAVISYDGSNKYYADSVKGRFTISRDNSKNTLYLQMNSLRAEDTAVYYCAKIGATDPLDYWGQGTLVTVSSGSASAPKLEEGEFSEARVQSALTQPRSVSGSPGQSVTISCTGTSSDVGGYNYVSWYQQHPGKTPKLMIYDVTKRPSGVPDHFSGSKSGNTASLTISGLQAEDEADYYCCSYAGSHIWVFGGGTKLTVLGQPKAAPSVTLFPPSS	0.036	50	43.5	0.472	0.36
YU100-B03 (antibody) QVQLVQSGGGVVQPGRSLRLSCAASGFTFSSYGMHWVRQAPGKGLEWVAVISYDGSNKYYADSVKGRFTISRDNSKNTLYLQMNSLRAEDTAVYYCAKIGATDPLDYWGQGTLVTVSSGSASAPKLEEGEFSEARVQSVLTQPRSVSGSPGRSVTISCTGTSSDVGGYNYVSWYQQHPGKAPKLTLYDVVKRPSGVPDRYSGSKSGNTASLTISGLQAEDEADYYCCSYAGGYTWVFGGGTKVTVV	0.025	47.3	46.8	0.321	0.227
YU100-D02 (antibody) QVRLVQSGGGVVQPGRSLRLSCAASGFTFSSYGMHWVRQAPGKGLEWVAVISYDGSNKYYADSVKGRFTISRDNSKNTLYLQMNSLRAEDTAVYYCAKIGATDPLDYWGQGTLVTVSSGSASAPKLEEGEFSEARVQSALTQPRSVSGSPGQSVTISCTGTSGDVGTYNYVSWYQQHPGKAPKLMIFDVSKRPSGVPDRFSGSKSGNTASLTISGLQAEDEADYYCNSYAGSYTWVFGGGTKLTVLGQPKAAPSVTLFPPSS	0.022	49.6	42.2	0.346	0.268
YU100-E05 (antibody) EVQLVQSGGGVVQPGRSLRLSCAASGFTFSSYGMHWVRQAPGKGLEWVAVISYDGSNKYYADSVKGRFTISRDNSKNTLYLQMNSLRAEDTAVYYCAKIGATDPLDYWGQGTLVTVSSGSASAPKLEEGEFSEARVQAVLTQPRSVSGSPGQSVTISCTGTSSDVGGYNYVSWYQQHPGKAPKLMIYDVSKRPSGVPDRFSGSKSGNTASLTISGLQAEDEADYYCCSYAGSYSWVFGGGTKLTVLGQPKAAPSVTLFPPSS	0.027	56.3	50.2	0.275	0.16
YU100-D11 (antibody) QVQLVQSGGGVVQPGRSLRLSCAASGFTFSSYGMHWVRQAPGKGLEWVAVISYDGSNKYYADSVKGRFTISRDNSKNTLYLQMNSLRAEDTAVYYCAKIGATDPLDYWGQGTLVTVSSGSASAPKLEEGEFSEARVQSALTQPRSVSGSPGQSVTISCTGTSSNVGGYNYVSWYQQHPGKAPKLMIYDVSKRPSGVPDRFSGSKSGNTASLTISGLQAEDEANYYCASYAGNYNWVFGGGTKLTVLGQPKAAPSVTLFPPSS	0.038	51.2	47.2	0.475	0.447
